Values belong to the binder of their own block, whether it stands above or below them.
How the values were obtained:
mCherry-LacI-PALB2^WD40 = target: T1, mCherry-LacI-PALB2^WD40 (UniProt Q86YC2 841-1186); test: LacO/LacI tethering recruitment assay
T1 sequence (looked up): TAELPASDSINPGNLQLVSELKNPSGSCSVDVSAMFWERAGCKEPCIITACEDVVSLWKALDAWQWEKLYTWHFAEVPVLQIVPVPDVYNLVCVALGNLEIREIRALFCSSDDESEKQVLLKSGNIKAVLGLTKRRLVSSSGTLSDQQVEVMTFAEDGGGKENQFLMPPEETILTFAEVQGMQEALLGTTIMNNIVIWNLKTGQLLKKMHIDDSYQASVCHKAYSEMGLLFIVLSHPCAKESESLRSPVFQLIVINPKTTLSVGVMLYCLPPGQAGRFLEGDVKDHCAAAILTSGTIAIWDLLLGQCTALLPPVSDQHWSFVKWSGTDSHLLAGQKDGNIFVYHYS

mCherry-LacI-PALB2^FL = target: T2, mCherry-LacI-PALB2^FL (UniProt Q86YC2 1-1186); test: LacO/LacI tethering recruitment assay
T2 sequence (looked up): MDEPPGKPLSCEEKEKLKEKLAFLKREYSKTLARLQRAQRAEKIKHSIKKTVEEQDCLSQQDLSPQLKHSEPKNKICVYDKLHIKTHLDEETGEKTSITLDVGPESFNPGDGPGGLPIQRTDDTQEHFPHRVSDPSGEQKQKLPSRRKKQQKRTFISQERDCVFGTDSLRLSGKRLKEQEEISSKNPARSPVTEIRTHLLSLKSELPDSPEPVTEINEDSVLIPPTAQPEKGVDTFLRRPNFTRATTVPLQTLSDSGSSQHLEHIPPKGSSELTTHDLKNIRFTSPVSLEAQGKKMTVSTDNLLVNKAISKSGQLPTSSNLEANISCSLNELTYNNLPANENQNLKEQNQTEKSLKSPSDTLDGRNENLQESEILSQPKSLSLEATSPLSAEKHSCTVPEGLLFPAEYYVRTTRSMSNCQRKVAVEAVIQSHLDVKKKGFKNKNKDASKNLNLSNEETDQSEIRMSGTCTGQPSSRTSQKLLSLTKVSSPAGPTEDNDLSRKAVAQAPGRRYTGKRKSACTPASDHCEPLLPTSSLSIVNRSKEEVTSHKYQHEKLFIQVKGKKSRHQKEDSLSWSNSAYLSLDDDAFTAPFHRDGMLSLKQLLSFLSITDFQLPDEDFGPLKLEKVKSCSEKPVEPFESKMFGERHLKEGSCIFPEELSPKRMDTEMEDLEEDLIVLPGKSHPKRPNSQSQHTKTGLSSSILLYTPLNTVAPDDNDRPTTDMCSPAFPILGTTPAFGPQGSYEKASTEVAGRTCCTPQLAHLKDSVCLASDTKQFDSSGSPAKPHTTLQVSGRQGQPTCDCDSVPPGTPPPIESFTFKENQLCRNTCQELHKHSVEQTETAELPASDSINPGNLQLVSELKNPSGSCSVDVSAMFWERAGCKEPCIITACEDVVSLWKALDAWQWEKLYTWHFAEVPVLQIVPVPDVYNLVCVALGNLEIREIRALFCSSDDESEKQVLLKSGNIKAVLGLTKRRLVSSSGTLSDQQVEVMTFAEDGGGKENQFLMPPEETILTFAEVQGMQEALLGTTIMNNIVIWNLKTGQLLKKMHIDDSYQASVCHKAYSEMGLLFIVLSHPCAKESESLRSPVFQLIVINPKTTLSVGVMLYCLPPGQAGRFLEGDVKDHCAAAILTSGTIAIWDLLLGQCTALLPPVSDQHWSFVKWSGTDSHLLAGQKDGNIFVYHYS

percent of cells with recruitment of GFP-USP22 to the LacO array (mCherry-LacI-PALB2^WD40): 55%
B1: GFP-USP22^DUB (domain or fragment, human, UniProt Q9UPT9 164-525, looked up)
chain: RRKITSNCTIGLRGLINLGNTCFMNCIVQALTHTPLLRDFFLSDRHRCEMQSPSSCLVCEMSSLFQEFYSGHRSPHIPYKLLHLVWTHARHLAGYEQQDAHEFLIAALDVLHRHCKGDDNGKKANNPNHCNCIIDQIFTGGLQSDVTCQVCHGVSTTIDPFWDISLDLPGSSTPFWPLSPGSEGNVVNGESHVSGTTTLTDCLRRFTRPEHLGSSAKIKCSGCHSYQESTKQLTMKKLPIVACFHLKRFEHSAKLRRKITTYVSFPLELDMTPFMASSKESRMNGQYQQPTDSLNNDNKYSLFAVVNHQGTLESGHYTSFIRQHKDQWFKCDDAIITKASIKDVLDSEGYLLFYHKQFLEYE

percent of cells with recruitment of GFP-USP22 to the LacO array (mCherry-LacI-PALB2^WD40): 37.5% | percent of cells with recruitment of GFP-USP22 to the LacO array (mCherry-LacI-PALB2^FL): 35%
B2: GFP-USP22 (enzyme, human, UniProt Q9UPT9 1-525, looked up)
chain: MVSRPEPEGEAMDAELAVAPPGCSHLGSFKVDNWKQNLRAIYQCFVWSGTAEARKRKAKSCICHVCGVHLNRLHSCLYCVFFGCFTKKHIHEHAKAKRHNLAIDLMYGGIYCFLCQDYIYDKDMEIIAKEEQRKAWKMQGVGEKFSTWEPTKRELELLKHNPKRRKITSNCTIGLRGLINLGNTCFMNCIVQALTHTPLLRDFFLSDRHRCEMQSPSSCLVCEMSSLFQEFYSGHRSPHIPYKLLHLVWTHARHLAGYEQQDAHEFLIAALDVLHRHCKGDDNGKKANNPNHCNCIIDQIFTGGLQSDVTCQVCHGVSTTIDPFWDISLDLPGSSTPFWPLSPGSEGNVVNGESHVSGTTTLTDCLRRFTRPEHLGSSAKIKCSGCHSYQESTKQLTMKKLPIVACFHLKRFEHSAKLRRKITTYVSFPLELDMTPFMASSKESRMNGQYQQPTDSLNNDNKYSLFAVVNHQGTLESGHYTSFIRQHKDQWFKCDDAIITKASIKDVLDSEGYLLFYHKQFLEYE

From paper PMC9285637 (Molecular cancer research : MCR, 2019)
